Results: paper PMC3973307 (Nucleic Acids Research, 2014)

Experiments:
[1] = target: mouse Δ320-Polrmt (N-terminal truncation mutant lacking the amino-terminal 320 amino acids) (mouse, UniProt Q8BKF1 321-1207); assay: MST
[2] = target: mouse mitochondrial RNA polymerase (Polrmt), wild type (mouse, UniProt Q8BKF1 42-1207); assay: MST
mouse mitochondrial RNA polymerase (Polrmt), wild type, sequence (Q8BKF1 42-1207): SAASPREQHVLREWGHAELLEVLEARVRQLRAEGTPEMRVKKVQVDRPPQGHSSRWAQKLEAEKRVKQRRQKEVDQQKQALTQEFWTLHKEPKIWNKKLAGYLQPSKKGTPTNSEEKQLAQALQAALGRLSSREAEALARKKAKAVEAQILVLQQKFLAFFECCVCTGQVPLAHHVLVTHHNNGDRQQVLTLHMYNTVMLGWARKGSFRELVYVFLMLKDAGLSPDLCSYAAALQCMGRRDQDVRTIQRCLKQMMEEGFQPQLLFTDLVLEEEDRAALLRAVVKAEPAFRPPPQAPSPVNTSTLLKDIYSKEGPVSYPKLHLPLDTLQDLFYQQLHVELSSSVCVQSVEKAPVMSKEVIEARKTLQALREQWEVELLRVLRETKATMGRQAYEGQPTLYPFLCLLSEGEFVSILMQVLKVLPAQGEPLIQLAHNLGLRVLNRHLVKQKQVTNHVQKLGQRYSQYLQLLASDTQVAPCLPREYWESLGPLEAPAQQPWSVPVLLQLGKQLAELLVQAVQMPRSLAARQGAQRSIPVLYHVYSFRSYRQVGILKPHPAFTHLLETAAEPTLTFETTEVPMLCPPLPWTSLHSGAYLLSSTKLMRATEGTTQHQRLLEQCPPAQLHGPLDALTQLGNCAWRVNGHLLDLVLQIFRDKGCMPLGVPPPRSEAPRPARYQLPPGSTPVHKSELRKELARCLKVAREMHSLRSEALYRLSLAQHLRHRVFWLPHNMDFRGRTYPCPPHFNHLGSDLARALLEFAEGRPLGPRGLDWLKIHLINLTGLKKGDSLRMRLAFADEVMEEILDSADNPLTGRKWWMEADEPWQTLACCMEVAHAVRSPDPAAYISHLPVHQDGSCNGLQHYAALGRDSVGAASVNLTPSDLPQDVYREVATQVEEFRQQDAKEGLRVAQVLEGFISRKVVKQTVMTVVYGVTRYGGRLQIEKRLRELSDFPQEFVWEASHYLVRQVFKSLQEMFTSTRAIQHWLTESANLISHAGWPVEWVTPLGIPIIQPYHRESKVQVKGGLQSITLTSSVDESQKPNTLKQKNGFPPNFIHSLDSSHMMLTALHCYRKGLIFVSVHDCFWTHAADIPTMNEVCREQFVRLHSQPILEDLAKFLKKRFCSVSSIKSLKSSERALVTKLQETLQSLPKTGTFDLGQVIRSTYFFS

mouse Δ320-Polrmt (N-terminal truncation mutant lacking the amino-terminal 320 amino acids), sequence (Q8BKF1 321-1207, stated change not applied): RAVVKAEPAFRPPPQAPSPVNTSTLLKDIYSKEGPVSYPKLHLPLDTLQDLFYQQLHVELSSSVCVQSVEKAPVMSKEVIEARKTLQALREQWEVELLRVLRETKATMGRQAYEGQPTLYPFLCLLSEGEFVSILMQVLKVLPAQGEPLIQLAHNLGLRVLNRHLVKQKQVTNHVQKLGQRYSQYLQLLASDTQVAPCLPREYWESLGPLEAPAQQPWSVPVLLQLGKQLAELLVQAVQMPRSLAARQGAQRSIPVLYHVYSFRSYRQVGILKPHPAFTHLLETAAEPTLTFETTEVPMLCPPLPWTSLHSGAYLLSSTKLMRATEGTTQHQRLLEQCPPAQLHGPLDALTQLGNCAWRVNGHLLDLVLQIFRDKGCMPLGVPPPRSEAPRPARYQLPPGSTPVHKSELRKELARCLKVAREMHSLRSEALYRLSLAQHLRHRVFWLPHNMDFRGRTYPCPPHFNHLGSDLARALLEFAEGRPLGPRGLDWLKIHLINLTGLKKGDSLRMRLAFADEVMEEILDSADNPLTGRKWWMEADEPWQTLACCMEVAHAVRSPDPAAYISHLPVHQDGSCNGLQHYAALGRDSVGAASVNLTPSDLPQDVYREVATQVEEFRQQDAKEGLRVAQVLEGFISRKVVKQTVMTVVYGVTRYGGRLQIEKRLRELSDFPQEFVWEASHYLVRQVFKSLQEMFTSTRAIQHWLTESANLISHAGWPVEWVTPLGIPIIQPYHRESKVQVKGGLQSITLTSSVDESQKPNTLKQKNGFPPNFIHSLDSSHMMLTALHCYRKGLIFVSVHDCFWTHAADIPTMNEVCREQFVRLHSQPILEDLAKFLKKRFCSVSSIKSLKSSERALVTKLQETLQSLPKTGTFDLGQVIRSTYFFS

B1: mouse mitochondrial transcription factor B2 (Tfb2m) (natural protein, UniProt Q3TL26 44-396, looked up)
chain: SDFNIEPLPDSDLEESSPWTSRNRSEPTRHIACKKAARNLVRDLLEHQNPSRQIILECNPGPGILTGALLKAGARVVAFESEKTFIPHLEPLQRNMDGELQVVHCDFFKMDPRYQEVVRPDVSSQAIFQNLGIKAVPWSAGVPIKVFGILPYKHERRILWKILFDLYSCESIYRYGRVELNMFVSEKEFRKLIATPKRPDLYQVMAVLWQVACDVKFLHMEPWSSFSVHTENGHLEKSKHGESVNLLKQNLYLVRMTPRRTLFTENLSPLNYDIFFHLVKHCFGKRNAPIIRHLRSLSTVDPINILRQIRKNPGDTAARMYPHDFKKLFETIEQSEDSVFKWIYDYCPEDMEF
modifications: amine-labelled with NT-647 dye
Kd [1]: 49.4 ± 1.1 nM | Kd [2]: 105 ± 1.2 nM
